Assay results from paper PMC6449345.

Legend:
[1] = molecular target: S. cerevisiae RNA polymerase II (Pol II), stalled elongation complex on DNA with nascent RNA (S. cerevisiae) (UniProt P16370)
[2] = molecular target: S. cerevisiae RNA polymerase II (Pol II), stalled elongation complex on DNA with nascent RNA (S. cerevisiae) (UniProt P16370); remark: listed apart in the source

Sequence of UniProt P16370 (P16370 whole entry, looked up, one chain of several): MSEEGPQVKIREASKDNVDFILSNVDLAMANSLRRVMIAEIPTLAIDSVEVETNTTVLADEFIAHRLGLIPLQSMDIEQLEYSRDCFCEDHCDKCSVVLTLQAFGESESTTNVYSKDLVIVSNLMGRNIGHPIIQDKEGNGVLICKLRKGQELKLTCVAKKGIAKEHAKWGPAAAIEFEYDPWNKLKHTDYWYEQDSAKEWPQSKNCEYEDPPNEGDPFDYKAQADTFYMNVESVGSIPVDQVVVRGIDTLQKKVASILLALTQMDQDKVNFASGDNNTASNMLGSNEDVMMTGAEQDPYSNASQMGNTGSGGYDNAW

B1: Sen1 helicase domain (Sen1 HD, 1095–1904) (domain or fragment)
chain: AELAKQELEHMRKRLNVDMNPLYEIILQWDYTRNSEYPDDEPIGNYSDVKDFFNSPADYQKVMKPLLLLESWQGLCSSRDREDYKPFSIIVGNRTAVSDFYDVYASVAKQVIQDCGISESDLIVMAYLPDFRPDKRLSSDDFKKAQHTCLAKVRTLKNTKGGNVDVTLRIHRNHSFSKFLTLRSEIYCVKVMQMTTIEREYSTLEGLEYYDLVGQILQAKPSPPVNVDAAEIETVKKSYKLNTSQAEAIVNSVSKEGFSLIQGPPGTGKTKTILGIIGYFLSTKNASSSNVIKVPLEKNSSNTEQLLKKQKILICAPSNAAVDEICLRLKSGVYDKQGHQFKPQLVRVGRSDVVNVAIKDLTLEELVDKRIGERNYEIRTDPELERKFNNAVTKRRELRGKLDSESGNPESPMSTEDISKLQLKIRELSKIINELGRDRDEMREKNSVNYRNRDLDRRNAQAHILAVSDIICSTLSGSAHDVLATMGIKFDTVIIDEACQCTELSSIIPLRYGGKRCIMVGDPNQLPPTVLSGAASNFKYNQSLFVRMEKNSSPYLLDVQYRMHPSISKFPSSEFYQGRLKDGPGMDILNKRPWHQLEPLAPYKFFDIISGRQEQNAKTMSYTNMEEIRVAIELVDYLFRKFDNKIDFTGKIGIISPYREQMQKMRKEFARYFGGMINKSIDFNTIDGFQGQEKEIILISCVRADDTKSSVGFLKDFRRMNVALTRAKTSIWVLGHQRSLAKSKLWRDLIEDAKDRSCLAYACSGFLDPRNNRAQSILRKFNVPVPSEQEDDYKLPMEYITQGPDEVKSN
For B1, the k−1, rate of unbinding of Sen1 HD from the stalled elongation complex; the same fit [1] was 0.0719 s⁻¹, the Km of formation of the intermediate (Sen1·sEC)'; Michaelis-Menten fit of t1, the lifetime before the intermediate forms [2] was 0.096 nM and the Km of removal of stalled Pol II by Sen1 HD (10-100 pM); Michaelis-Menten fit of the mean total lifetime (t total) of the transcription bubble; magnetic-trap DNA supercoiling assay, 1 mM ATP, 28 °C [2] was 70 pM. It also gave a Km of removal of stalled Pol II by Sen1 HD; Michaelis-Menten fit of t total, corrected for the stalling rate ks [2] of 0.083 nM, a Km of removal of stalled Pol II by Sen1 HD; single-molecule Michaelis-Menten global fit of t total distributions (from k1, k-1 and kCAT) [2] of 0.041 nM and a k1, rate of binding of Sen1 HD to the stalled elongation complex; single-molecule Michaelis-Menten global fit of t total distributions, kCAT constrained [2] of 2.18e+09 M⁻¹ s⁻¹. For the same binder, the k−1, rate of unbinding of Sen1 HD from the stalled elongation complex; single-molecule Michaelis-Menten global fit of t total distributions, kCAT constrained [2] was 0.0725 s⁻¹.
